Data: article PMC2670981, “Divergence of Catalytic Mechanism within a Glycosidase Family Provides Insight into Evolution of Carbohydrate Metabolism by Human Gut Flora” (Chemistry & Biology, 2008)

Tested on: O=[N+]([O-])c1ccc(O[C@H]2O[C@H](CO)[C@@H](O)[C@H](O)[C@H]2O)c([N+](=O)[O-])c1
Assay: purified protein
Settings: Ca2+

Substance: BtGH97a (Bacteroides thetaiotaomicron VPI-5482)
- Km: 140 ± 10 µM
- kcat: 280 ± 7 s⁻¹
- kcat/Km: 2e+06 M⁻¹ s⁻¹
